{"source": "patent US20210292396A1", "experiment_in_all_cases": "cell-based or functional assay", "key": {"[1]": {"biological_target": "HIV Env of isolate T253-11 (HIV)"}, "[2]": {"biological_target": "Env of HIV isolate 191821.E6.1 (clade D) (HIV)"}, "[3]": {"biological_target": "HIV Env of isolate 3637.v5.c3 (HIV)"}, "[4]": {"biological_target": "HIV Env of isolate 3365.v2.c20 (HIV)"}, "[5]": {"biological_target": "Env of HIV isolate KER2018.11 (clade A) (HIV)"}, "[6]": {"biological_target": "Env of HIV isolate BB539.2B13 (clade A) (HIV)"}, "[7]": {"biological_target": "HIV Env of isolate KNH1209.18 (HIV)"}, "[8]": {"biological_target": "HIV Env of isolate CNE7 (HIV)"}, "[9]": {"biological_target": "HIV Env of isolate CNE10 (HIV)"}, "[10]": {"biological_target": "HIV Env of isolate 57128.vrc15 (HIV)"}, "[11]": {"biological_target": "HIV Env of isolate MS208.A1 (HIV)"}, "[12]": {"biological_target": "Env of HIV isolate CH181.12 (clade BC) (HIV)"}, "[13]": {"biological_target": "Env of HIV isolate R1166.C1 (clade AE) (HIV)"}, "[14]": {"biological_target": "HIV Env of isolate 6471.v1.c16 (HIV)"}, "[15]": {"biological_target": "Env of HIV isolate BB201.B42 (clade A) (HIV)"}, "[16]": {"biological_target": "Env of HIV isolate AC10.29 (clade B) (HIV)"}, "[17]": {"biological_target": "HIV Env of isolate 3337.v2.c6 (HIV)"}, "[18]": {"biological_target": "HIV Env of isolate 25710-2.43 (HIV)"}, "[19]": {"biological_target": "HIV Env of isolate CNE59 (HIV)"}, "[20]": {"biological_target": "Env of HIV isolate 426c (clade C) (HIV)"}, "[21]": {"biological_target": "Env of HIV isolate BJOX010000.06.2 (clade AE) (HIV)"}, "[22]": {"biological_target": "HIV Env of isolate 271-11 (HIV)"}, "[23]": {"biological_target": "HIV Env of isolate 247-23 (HIV)"}, "[24]": {"biological_target": "HIV Env of isolate T257-31 (HIV)"}, "[25]": {"biological_target": "HIV Env of isolate BB539.2B13 (HIV)"}, "[26]": {"biological_target": "Env of HIV isolate 928-28 (clade AG) (HIV)"}, "[27]": {"biological_target": "HIV Env of isolate T266-60 (HIV)"}, "[28]": {"biological_target": "Env of HIV isolate C1080.c3 (clade AE) (HIV)"}, "[29]": {"biological_target": "Env of HIV isolate 398-F1.F6.20 (clade A) (HIV)"}, "[30]": {"biological_target": "HIV Env of isolate CNE15 (HIV)"}, "[31]": {"biological_target": "Env of HIV isolate QH209.14M.A2 (clade A) (HIV)"}, "[32]": {"biological_target": "Envelope of SVA.MLV"}, "[33]": {"biological_target": "HIV Env of isolate TV1.29 (HIV)"}, "[34]": {"biological_target": "Env of HIV isolate HXB2.DG (clade B) (HIV)"}, "[35]": {"biological_target": "Env of HIV isolate JRCSF.JB (clade B) (HIV)"}, "[36]": {"biological_target": "Env of HIV isolate 269-12 (clade AG) (HIV)"}, "[37]": {"biological_target": "HIV Env of isolate 3326.v4.c3 (HIV)"}, "[38]": {"biological_target": "Env of HIV isolate CNE55 (clade AE) (HIV)"}, "[39]": {"biological_target": "Env of HIV isolate 6101.10 (clade B) (HIV)"}, "[40]": {"biological_target": "Env of HIV isolate 0439.v5.c1 (clade A) (HIV)"}, "[41]": {"biological_target": "Env of HIV isolate HT593.1 (clade B) (HIV)"}, "[42]": {"biological_target": "Env of HIV isolate ZM109.4 (clade C) (HIV)"}, "[43]": {"biological_target": "Env of HIV isolate X1254.c3 (clade G) (HIV)"}, "[44]": {"biological_target": "HIV Env of isolate 398-F1.F6.20 (HIV)"}, "[45]": {"biological_target": "Env of HIV isolate 0921.v2.c14 (clade C) (HIV)"}, "[46]": {"biological_target": "Env of HIV isolate CM244.ec1 (clade AE) (HIV)"}, "[47]": {"biological_target": "Env of HIV isolate CNE59 (clade AE) (HIV)"}, "[48]": {"biological_target": "HIV Env of isolate BR07.DG (HIV)"}, "[49]": {"biological_target": "HIV Env of isolate X1193.c1 (HIV)"}, "[50]": {"biological_target": "HIV Env of isolate T250-4 (HIV)"}, "[51]": {"biological_target": "Env of HIV isolate ZM55.28a (clade C) (HIV)"}, "[52]": {"biological_target": "Env of HIV isolate BJOX009000.02.4 (clade AE) (HIV)"}, "[53]": {"biological_target": "HIV Env of isolate C3347.c11 (HIV)"}}}
{"substance": "PGT121 (antibody)", "values": [{"measurement": "IC80", "setting": "[1]", "value": "> 50", "unit": "µg/mL"}, {"measurement": "IC50, pseudovirus neutralization", "setting": "[2]", "value": "> 50", "unit": "µg/mL"}, {"measurement": "IC80, pseudovirus neutralization", "setting": "[3]", "value": "> 50", "unit": "µg/mL"}, {"measurement": "IC80", "setting": "[4]", "value": 0.639, "unit": "µg/mL"}, {"measurement": "IC50, pseudovirus neutralization", "setting": "[5]", "value": "> 50", "unit": "µg/mL"}, {"measurement": "IC50, pseudovirus neutralization", "setting": "[6]", "value": "> 50", "unit": "µg/mL"}, {"measurement": "IC80", "setting": "[7]", "value": 0.0287, "unit": "µg/mL"}, {"measurement": "IC80, pseudovirus neutralization", "setting": "[8]", "value": 0.121, "unit": "µg/mL"}, {"measurement": "IC80", "setting": "[9]", "value": 0.048, "unit": "µg/mL"}, {"measurement": "IC80, pseudovirus neutralization", "setting": "[10]", "value": "> 50", "unit": "µg/mL"}, {"measurement": "IC80", "setting": "[11]", "value": "> 50", "unit": "µg/mL"}, {"measurement": "IC50, pseudovirus neutralization", "setting": "[12]", "value": 0.0313, "unit": "µg/mL"}, {"measurement": "IC50, pseudovirus neutralization", "setting": "[13]", "value": "> 50", "unit": "µg/mL"}, {"measurement": "IC80, pseudovirus neutralization", "setting": "[14]", "value": "> 50", "unit": "µg/mL"}, {"measurement": "IC50, pseudovirus neutralization", "setting": "[15]", "value": 0.00933, "unit": "µg/mL"}, {"measurement": "IC50, pseudovirus neutralization", "setting": "[16]", "value": 0.067, "unit": "µg/mL"}, {"measurement": "IC80, pseudovirus neutralization", "setting": "[17]", "value": "> 50", "unit": "µg/mL"}, {"measurement": "IC80, pseudovirus neutralization", "setting": "[18]", "value": 0.066, "unit": "µg/mL"}, {"measurement": "IC80", "setting": "[19]", "value": "> 50", "unit": "µg/mL"}, {"measurement": "IC50, pseudovirus neutralization", "setting": "[20]", "value": "> 50", "unit": "µg/mL"}, {"measurement": "IC50, pseudovirus neutralization", "setting": "[21]", "value": "> 50", "unit": "µg/mL"}, {"measurement": "IC80", "setting": "[22]", "value": "> 50", "unit": "µg/mL"}, {"measurement": "IC80, pseudovirus neutralization", "setting": "[23]", "value": "> 50", "unit": "µg/mL"}, {"measurement": "IC80", "setting": "[24]", "value": "> 50", "unit": "µg/mL"}, {"measurement": "IC80", "setting": "[25]", "value": "> 50", "unit": "µg/mL"}, {"measurement": "IC50, pseudovirus neutralization", "setting": "[26]", "value": 5.76, "unit": "µg/mL"}, {"measurement": "IC80", "setting": "[27]", "value": 0.548, "unit": "µg/mL"}, {"measurement": "IC50, pseudovirus neutralization", "setting": "[28]", "value": "> 50", "unit": "µg/mL"}, {"measurement": "IC50, pseudovirus neutralization", "setting": "[29]", "value": 0.0223, "unit": "µg/mL"}, {"measurement": "IC80, pseudovirus neutralization", "setting": "[30]", "value": "> 50", "unit": "µg/mL"}, {"measurement": "IC50, pseudovirus neutralization", "setting": "[31]", "value": "> 50", "unit": "µg/mL"}, {"measurement": "IC80, pseudovirus neutralization", "setting": "[32]", "value": "> 50", "unit": "µg/mL"}, {"measurement": "IC80, pseudovirus neutralization", "setting": "[33]", "value": 0.438, "unit": "µg/mL"}, {"measurement": "IC50, pseudovirus neutralization", "setting": "[34]", "value": "> 50", "unit": "µg/mL"}, {"measurement": "IC50, pseudovirus neutralization", "setting": "[35]", "value": 0.0563, "unit": "µg/mL"}, {"measurement": "IC50, pseudovirus neutralization", "setting": "[36]", "value": 0.128, "unit": "µg/mL"}, {"measurement": "IC80, pseudovirus neutralization", "setting": "[37]", "value": "> 50", "unit": "µg/mL"}, {"measurement": "IC50, pseudovirus neutralization", "setting": "[38]", "value": "> 50", "unit": "µg/mL"}, {"measurement": "IC50, pseudovirus neutralization", "setting": "[39]", "value": 0.0123, "unit": "µg/mL"}, {"measurement": "IC50, pseudovirus neutralization", "setting": "[40]", "value": "> 50", "unit": "µg/mL"}, {"measurement": "IC50, pseudovirus neutralization", "setting": "[41]", "value": "> 50", "unit": "µg/mL"}, {"measurement": "IC50, pseudovirus neutralization", "setting": "[42]", "value": 1.96, "unit": "µg/mL"}, {"measurement": "IC50, pseudovirus neutralization", "setting": "[43]", "value": 0.0347, "unit": "µg/mL"}, {"measurement": "IC80", "setting": "[44]", "value": 0.0527, "unit": "µg/mL"}, {"measurement": "IC50, pseudovirus neutralization", "setting": "[45]", "value": "> 50", "unit": "µg/mL"}, {"measurement": "IC50, pseudovirus neutralization", "setting": "[46]", "value": "> 50", "unit": "µg/mL"}, {"measurement": "IC50, pseudovirus neutralization", "setting": "[47]", "value": "> 50", "unit": "µg/mL"}, {"measurement": "IC80", "setting": "[48]", "value": 0.596, "unit": "µg/mL"}, {"measurement": "IC80, pseudovirus neutralization", "setting": "[49]", "value": 0.147, "unit": "µg/mL"}, {"measurement": "IC80", "setting": "[50]", "value": 0.0123, "unit": "µg/mL"}, {"measurement": "IC50, pseudovirus neutralization", "setting": "[51]", "value": 0.0807, "unit": "µg/mL"}, {"measurement": "IC50, pseudovirus neutralization", "setting": "[52]", "value": 0.751, "unit": "µg/mL"}, {"measurement": "IC80", "setting": "[53]", "value": "> 50", "unit": "µg/mL"}]}
